18 molecules from patent US20250339569A1 (3B PHARMACEUTICALS, published 2025) can be followed below.

Starred links: 1 amine or outer side, 2 acyl side, 3 side chain; linkers in the order of their positions; H or OH if unused. Positions of bridges follow the written chain, without caps; N, C: chain ends. Non-standard residues stand in square brackets, D forms with d. Primed or numbered codes have the meaning given here. *: point of attachment. Aph(2Ta5Sa)″ = 4-amino-L-phenylalanine, ring amine acylated by 5-sulfamoyl-thiophene-2-carboxylic acid, NS(=O)(=O)c1ccc(C(=O)Nc2ccc(C[C@H](N[*:1])C(=O)[*:2])cc2)s1; Af3(2Ta5Sa) = 3-amino-L-phenylalanine, ring amine acylated by 5-sulfamoyl-thiophene-2-carboxylic acid, NS(=O)(=O)c1ccc(C(=O)Nc2cccc(C[C@H](N[*:1])C(=O)[*:2])c2)s1; Af3(3Ta5Sa) = 3-aminophenylalanine, ring amine acylated with 5-sulfamoylthiophene-3-carboxylic acid, NS(=O)(=O)c1cc(C(=O)Nc2cccc(C[C@H](N[*:1])C(=O)[*:2])c2)cs1; Aph(2Ta5Sa) = 4-aminophenylalanine, ring amine acylated with 5-sulfamoylthiophene-2-carboxylic acid, NS(=O)(=O)c1ccc(C(=O)Nc2ccc(C[C@H](N[*:1])C(=O)[*:2])cc2)s1; Aph(3Ta5Sa) = 4-aminophenylalanine, ring amine acylated with 5-sulfamoylthiophene-3-carboxylic acid, NS(=O)(=O)c1cc(C(=O)Nc2ccc(C[C@H](N[*:1])C(=O)[*:2])cc2)cs1; Af3(3MSaBz) = 3-aminophenylalanine, ring amine acylated with 3-(sulfamoylmethyl)benzoic acid, NS(=O)(=O)Cc1cccc(C(=O)Nc2cccc(C[C@H](N[*:1])C(=O)[*:2])c2)c1; Af3(3SaBz) = 3-aminophenylalanine, ring amine acylated with 3-sulfamoylbenzoic acid, NS(=O)(=O)c1cccc(C(=O)Nc2cccc(C[C@H](N[*:1])C(=O)[*:2])c2)c1; Af3(4SaBz) = 3-aminophenylalanine, ring amine acylated with 4-sulfamoylbenzoic acid, NS(=O)(=O)c1ccc(C(=O)Nc2cccc(C[C@H](N[*:1])C(=O)[*:2])c2)cc1; Af3(OPyAc) = 3-aminophenylalanine, ring amine acylated with 2-(2-oxopyridin-1-yl)acetic acid, O=C(Cn1ccccc1=O)Nc1cccc(C[C@H](N[*:1])C(=O)[*:2])c1; Aph(3SaBz) = 4-aminophenylalanine, ring amine acylated with 3-sulfamoylbenzoic acid, NS(=O)(=O)c1cccc(C(=O)Nc2ccc(C[C@H](N[*:1])C(=O)[*:2])cc2)c1; Aph(SaPr)(4) = 4-aminophenylalanine, ring amine acylated with 3-sulfamoylpropanoic acid, NS(=O)(=O)CCC(=O)Nc1ccc(C[C@H](N[*:1])C(=O)[*:2])cc1; Aph(SaPr) = 4-amino-L-phenylalanine, ring amine acylated by 3-sulfamoylpropanoic acid, NS(=O)(=O)CCC(=O)Nc1ccc(C[C@H](N[*:1])C(=O)[*:2])cc1; Af3(SaPr) = 3-aminophenylalanine, ring amine acylated with 3-sulfamoylpropanoic acid, NS(=O)(=O)CCC(=O)Nc1cccc(C[C@H](N[*:1])C(=O)[*:2])c1; Af3(HO-Succinyl)″ = 3-aminophenylalanine, ring amine acylated with succinic acid, O=C(CCC(=O)[*:3])Nc1cccc(C[C@H](N[*:1])C(=O)[*:2])c1; Phe(3-NHCO(CH2)3SO2NH2) = N[C@@H](Cc1cccc(NC(=O)CCCS(N)(=O)=O)c1)C(=O)O; DOTA = O=C(O)CN1CCN(CC(=O)O)CCN(CC(=O)*)CCN(CC(=O)O)CC1; Phe(3,4-Cl2) = N[C@@H](Cc1ccc(Cl)c(Cl)c1)C(=O)O; Phe(3-CF3) = N[C@@H](Cc1cccc(C(F)(F)F)c1)C(=O)O; mXylylene = c1cc(C[*:1])cc(C[*:2])c1; PPAc″ = not defined here; APAc = not defined here; Dap = NC[C@H](N)C(=O)O Some results are limits rather than exact numbers.

Test [1] deals with T1, human carbonic anhydrase IX (CAIX) (human, UniProt Q16790 38-459). Nature of the test: FACS competition, HT-29 cells, tracer 3BP-4149; pIC50 category A: >8.0. The method, then: (§1) CAIX-expressing human HT-29 colorectal cancer cells (DSMZ, RRID: CVCL_0320) were cultured in McCoys's 5A modified medium (Biochrom, #F1015) including 10% fetal calf serum (FCS), 2 mM L-glutamine, 100 U/ml penicillin and 100 μg/mL streptomycin. Cells were detached with Accutase (Biolegend, #423201) and washed in FACS buffer (PBS including 1% FCS). Cells were diluted in FACS buffer to a final concentration of 500.000 cells per ml. 200 μL of the cell suspension were transferred to a u-shaped non-binding 96-well plate (Greiner) and cells were washed in ice-cold FACS buffer.
(§2) When biotinylated compounds were used an additional incubation step with 1 μg/mL APC-Streptavidin (Miltenyi; #130-106-791) in 50 μL FACS buffer for 30 minutes on ice was performed.
(§3) Cells were washed twice with ice-cold FACS buffer and analyzed in an Attune NxT flow cytometer (Thermo Fisher). Median fluorescence intensities (MFI) of the APC/Cy5-channel were calculated by Attune NxT software.

The target of test [2] is T2, Fc-fusion protein of human carbonic anhydrase IX (human, UniProt Q16790 38-414). The test is described as follows: SPR, captured hCAIX-Fc; pKD category A: >8.0. On the technique in general: SPR reads the build-up and loss of mass on a sensor chip optically.
Test [3] addresses T2, Fc-fusion protein of human carbonic …. Nature of the test: SPR, captured hCAIX-Fc; t1/2 category B: 5.1-15.0 min. On the procedure:
Stock solutions of test compounds were prepared by dissolving each compound in DMSO. DMSO stock solution were diluted 1:1000 in Running Buffer without DMSO. […] SPR binding analyses were performed in Single Cycle Kinetic (SCK) mode at 25° C.
For each test compound, SPR raw data in the form of resonance units (RU) were plotted as sensorgrams using the Biacore™ T200 control software. The signal from the blank sensorgram was subtracted from that of the test compound sensorgram (blank corrected). The blank corrected sensorgram was corrected for baseline drift by subtracting the sensorgram of a SCK run without the test compound (running buffer only). […] Raw data and fit results were imported as text files in IDBS. The pKD value (negative decadic logarithm of dissociation constant) was calculated in the IDBS excel template.

Test [4] has the same target. The test is described as follows: SPR, captured hCAIX-Fc; t1/2 category A: >15.0 min.
For test [5], the target named is T1, human carbonic anhydrase IX (CAIX). The test is described as follows: FACS competition, HT-29 cells, tracer 3BP-4149; pIC50 category B: 7.1-8.0. The method, then: as §1, §2, §3

Take {DOTA-APAc}-VDCE[dP]D[Phe(3-CF3)]LTW[Dap]C-NH2 (lactam 2-11; linker 3-12 via mXylylene; reading uncertain) [3BP-4440]: in test [1], the pIC50 was above 8 pic50. In addition, in test [2], the pKD is above 8 pkd. Further, the “t1/2 (half-life of the complex, SPR)” value in test [3] lay in the range of 5.1 to 15 min.
Turning to {DOTA-APAc}-VYCE[dP]D[Af3(3SaBz)]LTWSC-NH2 (linker 3-12 via mXylylene; reading uncertain) [3BP-4409], the “t1/2 (half-life of the complex, SPR)” value in test [4] is above 15 min. The same molecule registered a pIC50 in test [1] above 8 pic50. In test [2], this molecule returned a pKD above 8 pkd.
Take {DOTA-PPAc″}-YCE[dP]D[Aph(2Ta5Sa)″]LTWSC-NH2 (linker 2-11 via mXylylene; reading uncertain) [3BP-4457]: the pIC50 in test [1] was above 8 pic50. Moreover, the pKD in test [2] was above 8 pkd. For the same molecule, the “t1/2 (half-life of the complex, SPR)” value in test [3] lay within 5.1 to 15 min.

B1: 3BP-4488 (peptide)
peptide: {DOTA}-DCE[dP]D[Phe(3-NHCO(CH2)3SO2NH2)]LTW[Dap]C-NH2
modifications: lactam 1-10; linker 2-11 via mXylylene
SMILES: CC(C)C[C@@H]1NC(=O)[C@H](Cc2cccc(NC(=O)CCCS(N)(=O)=O)c2)NC(=O)[C@H](CC(=O)O)NC(=O)[C@H]2CCCN2C(=O)[C@H](CCC(=O)O)NC(=O)[C@@H]2CSCc3cccc(c3)CSC[C@@H](C(N)=O)NC(=O)[C@H](CNC(=O)C[C@H](NC(=O)CN3CCN(CC(=O)O)CCN(CC(=O)O)CCN(CC(=O)O)CC3)C(=O)N2)NC(=O)[C@H](Cc2c[nH]c3ccccc23)NC(=O)[C@H]([C@@H](C)O)NC1=O
Turning to B1, the “t1/2 (half-life of the complex, SPR)” value in test [4] is above 15 min. In test [1], this molecule showed a pIC50 above 8 pic50. For the same molecule, the pKD in test [2] is above 8 pkd.
As for {DOTA-APAc}-VYCE[dP]D[Aph(3Ta5Sa)]LTWSC-NH2 (linker 3-12 via mXylylene; reading uncertain) [3BP-4401], the “t1/2 (half-life of the complex, SPR)” value in test [4] was above 15 min. In test [1], this molecule gave a pIC50 above 8 pic50. The same molecule gave a pKD in test [2] above 8 pkd.
For the molecule {DOTA-APAc}-VYCE[dP]D[Af3(OPyAc)]LTWSC-NH2 (linker 3-12 via mXylylene; reading uncertain) [3BP-4370], the pIC50 in test [5] was in the range of 7.1 to 8 pic50.
In the case of {DOTA-APAc}-VDCE[dP]D[Af3(HO-Succinyl)″]LTW[Dap]C-NH2 (lactam 2-11; linker 3-12 via mXylylene; reading uncertain) [3BP-4377], in test [4], the “t1/2 (half-life of the complex, SPR)” value is above 15 min. The pIC50 in test [1] is above 8 pic50. In test [2], this molecule returned a pKD above 8 pkd.
{DOTA-APAc}-VYCE[dP]D[Af3(2Ta5Sa)]LTWSC-NH2 (linker 3-12 via mXylylene; reading uncertain) [3BP-4413]: in test [4], the “t1/2 (half-life of the complex, SPR)” value was above 15 min. Moreover, the pIC50 in test [1] is above 8 pic50. The molecule further registered a pKD in test [2] above 8 pkd.
Molecule {DOTA-APAc}-VDCE[dP]D[Phe(3,4-Cl2)]LTW[Dap]C-NH2 (lactam 2-11; linker 3-12 via mXylylene; reading uncertain) [3BP-4439] returned a pIC50 in test [1] above 8 pic50. Further, in test [2], the pKD is above 8 pkd. Further, in test [3], the “t1/2 (half-life of the complex, SPR)” value lay in the range of 5.1 to 15 min.
Turning to {DOTA-APAc}-VYCE[dP]D[Aph(SaPr)(4)]LTWSC-NH2 (linker 3-12 via mXylylene; reading uncertain) [3BP-4400], the “t1/2 (half-life of the complex, SPR)” value in test [4] was above 15 min. The molecule also yielded a pIC50 in test [1] above 8 pic50. For the same molecule, in test [2], the pKD was above 8 pkd.
Regarding {DOTA-APAc}-VYCE[dP]D[Af3(4SaBz)]LTWSC-NH2 (linker 3-12 via mXylylene; reading uncertain) [3BP-4405], in test [4], the “t1/2 (half-life of the complex, SPR)” value is above 15 min. The pIC50 in test [1] was above 8 pic50. The pKD in test [2] was above 8 pkd.

B2: 3BP-4489 (peptide)
peptide: {DOTA}-DCE[dP]D[Aph(SaPr)]LTW[Dap]C-NH2
modifications: lactam 1-10; linker 2-11 via mXylylene
SMILES: CC(C)C[C@@H]1NC(=O)[C@H](Cc2ccc(NC(=O)CCS(N)(=O)=O)cc2)NC(=O)[C@H](CC(=O)O)NC(=O)[C@H]2CCCN2C(=O)[C@H](CCC(=O)O)NC(=O)[C@@H]2CSCc3cccc(c3)CSC[C@@H](C(N)=O)NC(=O)[C@H](CNC(=O)C[C@H](NC(=O)CN3CCN(CC(=O)O)CCN(CC(=O)O)CCN(CC(=O)O)CC3)C(=O)N2)NC(=O)[C@H](Cc2c[nH]c3ccccc23)NC(=O)[C@H]([C@@H](C)O)NC1=O
In the case of B2, in test [4], the “t1/2 (half-life of the complex, SPR)” value was above 15 min. Also, the pIC50 in test [1] is above 8 pic50. Besides, the pKD in test [2] was above 8 pkd.
On the same counts, the results for {DOTA-APAc}-VYCE[dP]D[Af3(3MSaBz)]LTWSC-NH2 (linker 3-12 via mXylylene; reading uncertain) [3BP-4406] are above 15 min, above 8 pic50 and above 8 pkd.
For the molecule {DOTA-APAc}-VDCE[dP]D[Phe(3-NHCO(CH2)3SO2NH2)]LTW[Dap]C-NH2 (lactam 2-11; linker 3-12 via mXylylene; reading uncertain) [3BP-4445], the “t1/2 (half-life of the complex, SPR)” value in test [4] is above 15 min. Besides, in test [1], the pIC50 was above 8 pic50. Further, the pKD in test [2] was above 8 pkd.
The corresponding values for {DOTA-APAc}-VYCE[dP]D[Aph(2Ta5Sa)]LTWSC-NH2 (linker 3-12 via mXylylene; reading uncertain) [3BP-4402] are above 15 min, above 8 pic50 and above 8 pkd.
As for {DOTA-APAc}-VYCE[dP]D[Af3(SaPr)]LTWSC-NH2 (linker 3-12 via mXylylene; reading uncertain) [3BP-4407], the “t1/2 (half-life of the complex, SPR)” value in test [4] was above 15 min. The molecule further came in with a pIC50 in test [1] above 8 pic50. Also, the pKD in test [2] was above 8 pkd.
On the same counts, the results for {DOTA-APAc}-VYCE[dP]D[Aph(3SaBz)]LTWSC-NH2 (linker 3-12 via mXylylene; reading uncertain) [3BP-4408] are above 15 min, above 8 pic50 and above 8 pkd.
For {DOTA-APAc}-VYCE[dP]D[Af3(3Ta5Sa)]LTWSC-NH2 (linker 3-12 via mXylylene; reading uncertain) [3BP-4412], the “t1/2 (half-life of the complex, SPR)” value in test [4] is above 15 min. In test [1], this molecule had a pIC50 above 8 pic50. Moreover, the pKD in test [2] is above 8 pkd.
